Target: TRIP8b (mouse (endogenous in forebrain cortex)) (UniProt Q8C437)
Test: co-IP

Chain of UniProt Q8C437 (Q8C437 whole entry): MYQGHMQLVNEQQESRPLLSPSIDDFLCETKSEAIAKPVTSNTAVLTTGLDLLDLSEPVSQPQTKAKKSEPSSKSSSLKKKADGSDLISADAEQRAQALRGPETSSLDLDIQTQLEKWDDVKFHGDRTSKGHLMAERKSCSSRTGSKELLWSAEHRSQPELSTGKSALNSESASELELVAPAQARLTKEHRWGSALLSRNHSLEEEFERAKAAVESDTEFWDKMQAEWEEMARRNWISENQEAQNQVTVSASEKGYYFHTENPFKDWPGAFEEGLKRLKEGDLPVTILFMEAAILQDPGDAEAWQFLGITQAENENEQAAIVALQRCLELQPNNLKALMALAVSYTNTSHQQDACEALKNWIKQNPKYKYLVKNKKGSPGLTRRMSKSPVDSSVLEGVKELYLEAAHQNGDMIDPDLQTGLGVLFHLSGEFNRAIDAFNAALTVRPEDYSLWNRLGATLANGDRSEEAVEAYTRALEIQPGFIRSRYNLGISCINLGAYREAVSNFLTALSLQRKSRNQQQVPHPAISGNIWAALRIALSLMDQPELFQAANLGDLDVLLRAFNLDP
Chain of HCN1 (O88704 whole entry): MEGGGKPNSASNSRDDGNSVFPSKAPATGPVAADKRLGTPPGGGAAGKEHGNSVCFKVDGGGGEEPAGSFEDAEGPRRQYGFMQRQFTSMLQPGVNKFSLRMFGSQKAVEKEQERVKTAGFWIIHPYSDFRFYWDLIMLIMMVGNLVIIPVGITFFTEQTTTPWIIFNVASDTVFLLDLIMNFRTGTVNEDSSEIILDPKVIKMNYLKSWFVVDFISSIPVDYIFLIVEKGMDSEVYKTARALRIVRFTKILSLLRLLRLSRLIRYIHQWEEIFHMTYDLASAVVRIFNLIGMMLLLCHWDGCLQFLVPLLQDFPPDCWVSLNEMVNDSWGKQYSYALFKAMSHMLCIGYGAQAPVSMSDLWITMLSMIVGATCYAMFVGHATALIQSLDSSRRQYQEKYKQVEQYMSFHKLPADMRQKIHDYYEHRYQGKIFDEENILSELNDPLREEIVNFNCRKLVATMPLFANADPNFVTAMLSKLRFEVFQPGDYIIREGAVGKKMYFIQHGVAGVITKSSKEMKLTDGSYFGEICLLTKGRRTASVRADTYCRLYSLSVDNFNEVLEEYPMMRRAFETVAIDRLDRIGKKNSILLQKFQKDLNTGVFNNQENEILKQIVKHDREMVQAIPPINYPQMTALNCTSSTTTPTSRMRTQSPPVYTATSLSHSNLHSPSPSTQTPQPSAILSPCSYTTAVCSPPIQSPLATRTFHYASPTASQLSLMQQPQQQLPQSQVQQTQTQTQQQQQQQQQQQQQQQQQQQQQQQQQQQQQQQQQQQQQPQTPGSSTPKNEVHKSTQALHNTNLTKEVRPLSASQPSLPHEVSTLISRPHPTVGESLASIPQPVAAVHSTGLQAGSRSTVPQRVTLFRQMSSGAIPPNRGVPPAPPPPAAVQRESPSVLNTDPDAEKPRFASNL

HCN1 (from UniProt O88704 1-910) (natural protein)
percent of HCN1 co-immunoprecipitated: < 50%

Source: paper PMC2720631
